Data: paper PMC9482650, “Quantitative fragmentomics allow affinity mapping of interactomes” (Nature Communications, 2022)

What was measured:
Assay in all cases: holdup assay
Design in all cases: key: below the threshold = too weak to quantify, mostly under pKd 3.1 to 4
Settings in all cases: plain residues with an end cap or a label only (N-terminal biotin on a linker: ttds)
MAGI2_5, Q86UL8 = molecular target: MAGI2_5, Q86UL8
MPDZ_5, O75970 = molecular target: T1, MPDZ_5, O75970
T1 sequence (O75970 695-796, limits assumed, looked up): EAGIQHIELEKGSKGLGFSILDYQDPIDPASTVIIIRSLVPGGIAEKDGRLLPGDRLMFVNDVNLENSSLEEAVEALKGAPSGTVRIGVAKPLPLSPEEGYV

MPP7, Q5T2T1 = molecular target: T2, MPP7, Q5T2T1
T2 sequence (Q5T2T1 134-230, limits assumed, looked up): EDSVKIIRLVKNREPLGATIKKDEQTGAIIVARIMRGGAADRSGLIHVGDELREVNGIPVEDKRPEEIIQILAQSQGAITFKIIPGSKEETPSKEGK

DLG1_3, Q12959 = molecular target: DLG1_3, Q12959
Chain of DLG1_3, Q12959 (Q12959 457-571): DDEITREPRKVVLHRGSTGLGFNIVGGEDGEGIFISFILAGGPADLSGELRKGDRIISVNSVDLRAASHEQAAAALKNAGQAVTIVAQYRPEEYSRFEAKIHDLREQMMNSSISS

SNTB1, Q13884 = molecular target: T3, SNTB1, Q13884
T3 sequence (Q13884 107-205, limits assumed, looked up): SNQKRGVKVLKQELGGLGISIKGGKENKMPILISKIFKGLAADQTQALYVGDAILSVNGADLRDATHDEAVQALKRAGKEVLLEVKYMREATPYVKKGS

GRIP1_2, Q9Y3R0 = molecular target: T4, GRIP1_2, Q9Y3R0
T4 sequence (Q9Y3R0 145-248, limits assumed, looked up): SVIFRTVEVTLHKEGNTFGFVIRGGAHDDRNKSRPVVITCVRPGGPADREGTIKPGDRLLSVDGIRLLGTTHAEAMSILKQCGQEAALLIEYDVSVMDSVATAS

IL16_1, Q14005 = molecular target: IL16_1, Q14005
Chain of IL16_1, Q14005 (Q14005 210-306): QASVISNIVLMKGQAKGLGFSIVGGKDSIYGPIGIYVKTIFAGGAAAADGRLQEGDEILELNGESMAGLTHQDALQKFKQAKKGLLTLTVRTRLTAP

MPDZ_12, O75970 = molecular target: T5, MPDZ_12, O75970
T5 sequence (O75970 1857-1958, limits assumed, looked up): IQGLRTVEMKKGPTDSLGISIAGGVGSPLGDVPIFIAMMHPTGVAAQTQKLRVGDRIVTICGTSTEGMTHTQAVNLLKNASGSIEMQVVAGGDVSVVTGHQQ

HTRA4, P83105 = molecular target: T6, HTRA4, P83105
T6 sequence (P83105 378-476, limits assumed, looked up): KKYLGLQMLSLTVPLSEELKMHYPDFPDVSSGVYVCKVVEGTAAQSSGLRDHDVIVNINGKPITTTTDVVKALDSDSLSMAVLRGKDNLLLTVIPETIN

Inadl_3, Q8NI35 = molecular target: Inadl_3, Q8NI35
Chain of Inadl_3, Q8NI35 (Q8NI35 359-469): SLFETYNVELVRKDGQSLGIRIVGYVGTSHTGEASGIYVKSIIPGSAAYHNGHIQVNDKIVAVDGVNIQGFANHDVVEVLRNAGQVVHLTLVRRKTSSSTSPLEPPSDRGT

TJP2_1, Q9UDY2 = molecular target: TJP2_1, Q9UDY2
Chain of TJP2_1, Q9UDY2 (Q9UDY2 24-128): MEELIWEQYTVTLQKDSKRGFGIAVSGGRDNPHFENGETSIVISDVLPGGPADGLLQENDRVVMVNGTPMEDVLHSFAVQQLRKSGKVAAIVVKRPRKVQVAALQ

NHERF4_2, Q86UT5 = molecular target: NHERF4_2, Q86UT5
Chain of NHERF4_2, Q86UT5 (Q86UT5 220-308): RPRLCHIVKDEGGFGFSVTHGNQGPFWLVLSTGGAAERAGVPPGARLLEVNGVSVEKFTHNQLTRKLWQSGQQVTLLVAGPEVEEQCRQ

MAGI1_1, Q96QZ7 = molecular target: MAGI1_1, Q96QZ7
Chain of MAGI1_1, Q96QZ7 (Q96QZ7 1-106): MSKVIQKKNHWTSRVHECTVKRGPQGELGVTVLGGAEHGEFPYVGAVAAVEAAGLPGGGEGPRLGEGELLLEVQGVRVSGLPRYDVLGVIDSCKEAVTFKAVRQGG

FRMPD1, Q5SYB0 = molecular target: T7, FRMPD1, Q5SYB0
T7 sequence (Q5SYB0 52-145, limits assumed, looked up): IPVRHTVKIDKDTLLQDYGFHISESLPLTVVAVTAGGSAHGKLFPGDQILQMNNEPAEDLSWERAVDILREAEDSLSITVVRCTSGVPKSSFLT

NHERF2_2, Q15599 = molecular target: NHERF2_2, Q15599
Chain of NHERF2_2, Q15599 (Q15599 142-238): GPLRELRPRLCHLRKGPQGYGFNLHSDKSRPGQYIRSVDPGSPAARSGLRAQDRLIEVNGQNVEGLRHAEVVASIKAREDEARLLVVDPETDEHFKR

GRID2IP_1, A4D2P6 = molecular target: GRID2IP_1, A4D2P6
Chain of GRID2IP_1, A4D2P6 (A4D2P6 1-87): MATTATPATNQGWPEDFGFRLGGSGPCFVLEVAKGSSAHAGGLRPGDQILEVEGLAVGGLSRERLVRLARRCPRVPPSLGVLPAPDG

TJP3_3, O95049 = molecular target: T8, TJP3_3, O95049
T8 sequence (O95049 375-456, limits assumed, looked up): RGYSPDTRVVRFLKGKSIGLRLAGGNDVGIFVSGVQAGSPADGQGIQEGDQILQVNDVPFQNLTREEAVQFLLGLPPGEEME

GRIP2_7, Q9C0E4 = molecular target: GRIP2_7, Q9C0E4
Chain of GRIP2_7, Q9C0E4 (Q9C0E4 934-1023): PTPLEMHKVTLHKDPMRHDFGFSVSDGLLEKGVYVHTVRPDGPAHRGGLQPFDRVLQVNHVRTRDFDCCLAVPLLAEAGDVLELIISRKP

TIAM2, Q8IVF5 = molecular target: T9, TIAM2, Q8IVF5
T9 sequence (Q8IVF5 885-986, limits assumed, looked up): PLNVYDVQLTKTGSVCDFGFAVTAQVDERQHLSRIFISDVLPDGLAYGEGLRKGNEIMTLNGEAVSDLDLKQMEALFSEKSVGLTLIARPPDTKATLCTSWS

Inadl_1, Q8NI35 = molecular target: Inadl_1, Q8NI35
Chain of Inadl_1, Q8NI35 (Q8NI35 113-229): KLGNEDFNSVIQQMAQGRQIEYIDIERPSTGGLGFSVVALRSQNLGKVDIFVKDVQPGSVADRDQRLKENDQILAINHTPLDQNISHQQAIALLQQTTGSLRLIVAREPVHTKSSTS

MAGI2_3, Q86UL8 = molecular target: MAGI2_3, Q86UL8
Chain of MAGI2_3, Q86UL8 (Q86UL8 600-682): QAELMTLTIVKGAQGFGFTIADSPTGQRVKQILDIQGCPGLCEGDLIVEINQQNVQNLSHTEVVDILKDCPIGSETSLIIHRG

PDZRN4_1, Q6ZMN7 = molecular target: PDZRN4_1, Q6ZMN7
Chain of PDZRN4_1, Q6ZMN7 (Q6ZMN7 213-318): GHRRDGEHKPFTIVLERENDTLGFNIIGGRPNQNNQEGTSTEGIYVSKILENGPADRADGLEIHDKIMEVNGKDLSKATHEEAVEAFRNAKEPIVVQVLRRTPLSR

FRMPD2_1, Q68DX3 = molecular target: FRMPD2_1, Q68DX3
Chain of FRMPD2_1, Q68DX3 (Q68DX3 770-861): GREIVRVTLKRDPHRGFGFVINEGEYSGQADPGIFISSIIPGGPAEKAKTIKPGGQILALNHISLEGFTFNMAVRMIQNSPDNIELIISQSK

MAGI2_4, Q86UL8 = molecular target: MAGI2_4, Q86UL8
Chain of MAGI2_4, Q86UL8 (Q86UL8 772-865): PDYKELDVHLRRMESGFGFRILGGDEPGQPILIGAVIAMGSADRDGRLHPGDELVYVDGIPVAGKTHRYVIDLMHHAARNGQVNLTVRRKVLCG

IL16_4, Q14005 = molecular target: IL16_4, Q14005
Chain of IL16_4, Q14005 (Q14005 1229-1329): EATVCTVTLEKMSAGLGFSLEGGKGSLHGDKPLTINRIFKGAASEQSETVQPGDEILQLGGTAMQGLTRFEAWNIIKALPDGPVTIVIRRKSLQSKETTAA

NHERF3_3, Q5T2W1 = molecular target: T10, NHERF3_3, Q5T2W1
T10 sequence (Q5T2W1 238-333, limits assumed, looked up): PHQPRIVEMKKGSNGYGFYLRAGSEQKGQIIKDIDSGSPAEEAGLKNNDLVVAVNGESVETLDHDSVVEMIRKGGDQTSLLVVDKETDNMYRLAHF

Inadl_2, Q8NI35 = molecular target: Inadl_2, Q8NI35
Chain of Inadl_2, Q8NI35 (Q8NI35 238-335): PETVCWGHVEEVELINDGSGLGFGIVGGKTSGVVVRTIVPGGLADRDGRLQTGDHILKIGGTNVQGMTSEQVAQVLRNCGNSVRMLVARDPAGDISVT

AHNAK1, Q09666 = molecular target: AHNAK1, Q09666
Chain of AHNAK1, Q09666 (Q09666 4-100): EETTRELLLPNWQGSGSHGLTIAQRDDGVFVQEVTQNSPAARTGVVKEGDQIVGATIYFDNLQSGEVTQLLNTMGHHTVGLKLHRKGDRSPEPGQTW

Chain of MAGI2_5, Q86UL8 (Q86UL8 915-1017): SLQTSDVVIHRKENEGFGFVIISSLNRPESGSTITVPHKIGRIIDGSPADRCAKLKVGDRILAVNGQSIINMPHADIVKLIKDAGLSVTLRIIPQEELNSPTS

Binder: FVETQHQTQV [FAT3, Q8TDW7]
- pKd (MAGI2_5, Q86UL8): 4.72
- pKd (MPDZ_5, O75970): below the threshold
- pKd (MPP7, Q5T2T1): below the threshold
- pKd (DLG1_3, Q12959): 3.95
- pKd (SNTB1, Q13884): 4.19
- pKd (GRIP1_2, Q9Y3R0): 3.51
- pKd (IL16_1, Q14005): below the threshold
- pKd (MPDZ_12, O75970): below the threshold
- pKd (HTRA4, P83105): below the threshold
- pKd (Inadl_3, Q8NI35): below the threshold
- pKd (TJP2_1, Q9UDY2): below the threshold
- pKd (NHERF4_2, Q86UT5): below the threshold
- pKd (MAGI1_1, Q96QZ7): below the threshold
- pKd (FRMPD1, Q5SYB0): below the threshold
- pKd (NHERF2_2, Q15599): below the threshold
- pKd (GRID2IP_1, A4D2P6): below the threshold
- pKd (TJP3_3, O95049): below the threshold
- pKd (GRIP2_7, Q9C0E4): 3.82
- pKd (TIAM2, Q8IVF5): below the threshold
- pKd (Inadl_1, Q8NI35): below the threshold
- pKd (MAGI2_3, Q86UL8): 3.63
- pKd (PDZRN4_1, Q6ZMN7): below the threshold
- pKd (FRMPD2_1, Q68DX3): below the threshold
- pKd (MAGI2_4, Q86UL8): 3.91
- pKd (IL16_4, Q14005): below the threshold
- pKd (NHERF3_3, Q5T2W1): below the threshold
- pKd (Inadl_2, Q8NI35): 3.56
- pKd (AHNAK1, Q09666): 3.52

Binder: SRSRRRETAL [HPV33-E6, P06427]
- pKd (MAGI2_5, Q86UL8): below the threshold
- pKd (MPDZ_5, O75970): below the threshold
- pKd (MPP7, Q5T2T1): below the threshold
- pKd (DLG1_3, Q12959): 4.56
- pKd (SNTB1, Q13884): 5.05
- pKd (GRIP1_2, Q9Y3R0): below the threshold
- pKd (IL16_1, Q14005): below the threshold
- pKd (MPDZ_12, O75970): below the threshold
- pKd (HTRA4, P83105): below the threshold
- pKd (Inadl_3, Q8NI35): below the threshold
- pKd (TJP2_1, Q9UDY2): 4.01
- pKd (NHERF4_2, Q86UT5): below the threshold
- pKd (MAGI1_1, Q96QZ7): below the threshold
- pKd (FRMPD1, Q5SYB0): below the threshold
- pKd (NHERF2_2, Q15599): 3.97
- pKd (GRID2IP_1, A4D2P6): below the threshold
- pKd (TJP3_3, O95049): below the threshold
- pKd (GRIP2_7, Q9C0E4): 3.42
- pKd (TIAM2, Q8IVF5): below the threshold
- pKd (Inadl_1, Q8NI35): below the threshold
- pKd (MAGI2_3, Q86UL8): below the threshold
- pKd (PDZRN4_1, Q6ZMN7): 5.21
- pKd (FRMPD2_1, Q68DX3): 3.54
- pKd (MAGI2_4, Q86UL8): below the threshold
- pKd (IL16_4, Q14005): below the threshold
- pKd (NHERF3_3, Q5T2W1): below the threshold
- pKd (Inadl_2, Q8NI35): below the threshold
- pKd (AHNAK1, Q09666): 3.62
